Source: patent US20150139996A1

Columns and labels:
[1] = target: IgG1 heavy chain with CH3 construct 73 (L351D, Y349E, L368E) (human) [IgG part: P01857]; assay: native MS; combination 6 co-expressed (A: VH MF1337, B: VH MF1122)
[2] = target: IgG1 heavy chain with CH3 construct 73 (L351D, Y349E, L368E) (human) [IgG part: P01857]; assay: SDS-PAGE of protein A-purified supernatant; construct expressed alone
[3] = target: IgG1 heavy chain with CH3 construct 71 (L351D, Y349E) (human) [IgG part: P01857]; assay: native MS; combination 11 co-expressed (A: VH MF1337, B: VH MF1122)
[4] = target: IgG1 heavy chain with CH3 construct 71 (L351D, Y349E) (human) [IgG part: P01857]; assay: native MS; combination 5 co-expressed (A: VH MF1337, B: VH MF1122)
[5] = target: IgG1 heavy chain with CH3 construct 71 (L351D, Y349E) (human) [IgG part: P01857]; assay: SDS-PAGE of protein A-purified supernatant; construct expressed alone
[6] = target: IgG1 heavy chain with CH3 construct 76 (L351K, L368K) (human) [IgG part: P01857]; assay: native MS; combination 15 co-expressed (A: VH MF1337, B: VH MF1122)
[7] = target: IgG1 heavy chain with CH3 construct 76 (L351K, L368K) (human) [IgG part: P01857]; assay: SDS-PAGE of protein A-purified supernatant; construct expressed alone
[8] = target: IgG1 heavy chain with CH3 construct 80 (L351E) (human) [IgG part: P01857]; assay: as above
[9] = target: IgG1 heavy chain with CH3 construct 80 (L351E) (human) [IgG part: P01857]; assay: native MS; combination 14 co-expressed (A: VH MF1337, B: VH MF1122)
[10] = target: IgG1 heavy chain with CH3 construct 80 (L351E) (human) [IgG part: P01857]; assay: native MS; combination 13 co-expressed (A: VH MF1337, B: VH MF1122)
[11] = target: IgG1 heavy chain with CH3 construct 77 (L351R) (human) [IgG part: P01857]; assay: native MS; combination 16 co-expressed (A: VH MF1337, B: VH MF1122)
[12] = target: IgG1 heavy chain with CH3 construct 77 (L351R) (human) [IgG part: P01857]; assay: native MS; combination 1 co-expressed (A: VH MF1337, B: VH MF1122)
[13] = target: IgG1 heavy chain with CH3 construct 77 (L351R) (human) [IgG part: P01857]; assay: SDS-PAGE of protein A-purified supernatant; construct expressed alone
[14] = target: IgG1 heavy chain with CH3 construct 2 (K392D, K409D) (human) [IgG part: P01857]; assay: native MS; transfection C: vector V alone (fibrinogen VH, construct 2)
[15] = target: IgG1 heavy chain with CH3 construct 2 (K392D, K409D) (human) [IgG part: P01857]; assay: native MS; transfection D: vector VI alone (tetanus VH, construct 2)
[16] = target: IgG1 heavy chain with CH3 construct 2 (K392D, K409D) (human) [IgG part: P01857]; assay: SDS-PAGE of protein A-purified supernatant; construct expressed alone
[17] = target: IgG1 heavy chain with CH3 construct 7 (T366S, L368A, Y407V) (human) [IgG part: P01857]; assay: as above
[18] = target: IgG1 heavy chain with CH3 construct 7 (T366S, L368A, Y407V) (human) [IgG part: P01857]; assay: native MS; transfection Q: vector X alone (thyroglobulin VH, construct 7)
[19] = target: IgG1 heavy chain with CH3 construct 3 (K392D, K409D, K439D) (human) [IgG part: P01857]; assay: native MS; transfection E: vector VII alone (fibrinogen VH, construct 3)
[20] = target: IgG1 heavy chain with CH3 construct 3 (K392D, K409D, K439D) (human) [IgG part: P01857]; assay: native MS; transfection F: vector VIII alone (tetanus VH, construct 3)
[21] = target: IgG1 heavy chain with CH3 construct 3 (K392D, K409D, K439D) (human) [IgG part: P01857]; assay: SDS-PAGE of protein A-purified supernatant; construct expressed alone
[22] = target: IgG1 heavy chain with CH3 construct 75 (L351D, Y349D, R355D) (human) [IgG part: P01857]; assay: as above
[23] = target: IgG1 heavy chain with CH3 construct 75 (L351D, Y349D, R355D) (human) [IgG part: P01857]; assay: native MS; combination 9 co-expressed (A: VH MF1337, B: VH MF1122)
[24] = target: IgG1 heavy chain with CH3 construct 79 (T366R) (human) [IgG part: P01857]; assay: SDS-PAGE of protein A-purified supernatant; construct expressed alone
[25] = target: IgG1 heavy chain with CH3 construct 79 (T366R) (human) [IgG part: P01857]; assay: native MS; combination 14 co-expressed (A: VH MF1337, B: VH MF1122)
[26] = target: IgG1 heavy chain with CH3 construct 70 (L351E, Y349E) (human) [IgG part: P01857]; assay: native MS; combination 4 co-expressed (A: VH MF1337, B: VH MF1122)
[27] = target: IgG1 heavy chain with CH3 construct 70 (L351E, Y349E) (human) [IgG part: P01857]; assay: SDS-PAGE of protein A-purified supernatant; construct expressed alone
[28] = target: IgG1 heavy chain with CH3 construct 6 (T366W) (human) [IgG part: P01857]; assay: native MS; transfection P: vector IX alone (tetanus VH, construct 6)
[29] = target: IgG1 heavy chain with CH3 construct 6 (T366W) (human) [IgG part: P01857]; assay: SDS-PAGE of protein A-purified supernatant; construct expressed alone
[30] = target: IgG1 heavy chain with CH3 construct 78 (T366E) (human) [IgG part: P01857]; assay: native MS; combination 1 co-expressed (A: VH MF1337, B: VH MF1122)
[31] = target: IgG1 heavy chain with CH3 construct 78 (T366E) (human) [IgG part: P01857]; assay: SDS-PAGE of protein A-purified supernatant; construct expressed alone
[32] = target: IgG1 heavy chain with CH3 construct 74 (L351D, Y349D) (human) [IgG part: P01857]; assay: as above
[33] = target: IgG1 heavy chain with CH3 construct 74 (L351D, Y349D) (human) [IgG part: P01857]; assay: native MS; combination 10 co-expressed (A: VH MF1337, B: VH MF1122)

## IgG1 heavy chain with CH3 construct 73 (L351D, Y349E, L368E) (from UniProt P01857-1)
[1]
  % BB found: 1%
[2]
  % IgG: 79.3%
  % half molecule: 20.7%

## IgG1 heavy chain with CH3 construct 71 (L351D, Y349E) (from UniProt P01857-1)
[3]
  % BB found: 0%
[4]
  % BB found: 1%
[5]
  % IgG: 79.7%
  % half molecule: 20.3%

## IgG1 heavy chain with CH3 construct 76 (L351K, L368K) (from UniProt P01857-1)
[6]
  % BB found: 2.5%
[7]
  % IgG: 56.6%
  % half molecule: 43.4%

## IgG1 heavy chain with CH3 construct 80 (L351E) (from UniProt P01857-1)
[8]
  % IgG: 100%
[9]
  % BB found: 36%
[10]
  % BB found: 10%

## IgG1 heavy chain with CH3 construct 77 (L351R) (from UniProt P01857-1)
[11]
  % BB found: 1%
[12]
  % BB found: 2%
[13]
  % IgG: 100%

## IgG1 heavy chain with CH3 construct 2 (K392D, K409D) (from UniProt P01857-1)
[14]
  Full IgG found (%): 23%
  Half molecules found (%): 77%
[15]
  Full IgG found (%): 77%
  Half molecules found (%): 23%
[16]
  % IgG: 30.9%
  % half molecule: 69.1%

## IgG1 heavy chain with CH3 construct 7 (T366S, L368A, Y407V) (from UniProt P01857-1)
[17]
  % IgG: 58.6%
  % half molecule: 41.4%
[18]
  Full IgG found (%): 42%
  Half molecules found (%): 58%

## IgG1 heavy chain with CH3 construct 3 (K392D, K409D, K439D) (from UniProt P01857-1)
[19]
  Full IgG found (%): 24%
  Half molecules found (%): 76%
[20]
  Full IgG found (%): 36%
  Half molecules found (%): 64%
[21]
  % IgG: 24.5%
  % half molecule: 75.5%

## IgG1 heavy chain with CH3 construct 75 (L351D, Y349D, R355D) (from UniProt P01857-1)
[22]
  % IgG: 89.9%
  % half molecule: 10.1%
[23]
  % BB found: 2%

## IgG1 heavy chain with CH3 construct 79 (T366R) (from UniProt P01857-1)
[24]
  % IgG: 29.6%
  % half molecule: 70.4%
[9]
  % AB found: 38%
[25]
  % AA found: 4%

## IgG1 heavy chain with CH3 construct 70 (L351E, Y349E) (from UniProt P01857-1)
[26]
  % BB found: 0%
[27]
  % IgG: 67.8%
  % half molecule: 32.2%

## IgG1 heavy chain with CH3 construct 6 (T366W) (from UniProt P01857-1)
[28]
  Full IgG found (%): 18%
  Half molecules found (%): 82%
[29]
  % IgG: 27.6%
  % half molecule: 72.4%

## IgG1 heavy chain with CH3 construct 78 (T366E) (from UniProt P01857-1)
[12]
  % AB found: 81%
[30]
  % AA found: 3%
[31]
  % IgG: 44.4%
  % half molecule: 55.6%

## IgG1 heavy chain with CH3 construct 74 (L351D, Y349D) (from UniProt P01857-1)
[32]
  % IgG: 88.6%
  % half molecule: 11.4%
[33]
  % BB found: 1%
